Test results: US20120121504A1 (UNITED STATES OF AMERICA AS REPRESENTED BY THE SECRETARY …, published 2012)
Ends that are not written are not given here.

Key:
human CD52 [1] = molecular target: T1, human CD52 (human, UniProt P31358 25-36, ends and bridges not checked); experiment: flow cytometry, MFI ratio grade (sample over background), third party B cells
T1 construct: whole, on cells; also called CD52 antigen
T1 chain (looked up): GQNDTSQTSSPS

human CD52 [2] = molecular target: T1, human CD52; experiment: flow cytometry, MFI ratio grade (sample over background), allogeneic B cells

MFI ratio (sample over background) (human CD52 [1]): > 100 ratio
MFI ratio (sample over background) (human CD52 [2]): > 100 ratio
B1: alemtuzumab (humanized anti-human CD52 mAb with human IgG1 kappa constant domains) (antibody, V domains shown)
VH: QVQLQESGPGLVRPSQTLSLTCTVSGFTFTDFYMNWVRQPPGRGLEWIGFIRDKAKGYTTEYNPSVKGRVTMLVDTSKNQFSLRLSSVTAADTAVYYCAREGHTAAPFDYWGQGSLVTVSS
VL: DIQMTQSPSSLSASVGDRVTITCKASQNIDKYLNWYQQKPGKAPKLLIYNTNNLQTGVPSRFSGSGSGTDFTFTISSLQPEDIATYYCLQHISRPRTFGQGTKVEIKR
